Assay results reported in paper PMC8578170, “Electron carriers involved in autotrophic and heterotrophic acetogenesis in the thermophilic bacterium Thermoanaerobacter kivui” (Extremophiles, 2021).
Blank lines part the entries; values can stand above or below the molecule they belong to.

Tests used:
[1] = molecular target: T1, His-MetFV (Thermoanaerobacter kivui, UniProt A0A097ATJ3); assay: thin-layer chromatography of flavin released from purified complex; assay type: binding; conditions: 10 µM FMN in purification buffers unless otherwise specified
T1 construct: gene metF; with Methylenetetrahydrofolate reductase subunit MetV
T1 sequence (A0A097ATJ3 1-291): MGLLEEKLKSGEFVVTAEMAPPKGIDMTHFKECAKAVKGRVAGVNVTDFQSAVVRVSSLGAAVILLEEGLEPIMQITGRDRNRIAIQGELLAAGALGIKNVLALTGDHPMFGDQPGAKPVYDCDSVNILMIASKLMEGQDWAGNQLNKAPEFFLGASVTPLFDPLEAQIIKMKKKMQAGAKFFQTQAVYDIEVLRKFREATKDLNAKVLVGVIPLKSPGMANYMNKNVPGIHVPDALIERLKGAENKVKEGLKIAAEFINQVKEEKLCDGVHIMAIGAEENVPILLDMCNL
T1 sequence (A0A097ATJ4 1-216 partner): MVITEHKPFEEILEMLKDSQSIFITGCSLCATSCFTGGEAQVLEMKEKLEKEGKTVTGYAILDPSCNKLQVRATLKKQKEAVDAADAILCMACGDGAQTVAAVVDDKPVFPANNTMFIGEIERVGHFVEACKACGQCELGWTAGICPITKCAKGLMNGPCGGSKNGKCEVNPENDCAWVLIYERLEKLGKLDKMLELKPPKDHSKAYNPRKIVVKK

[2] = molecular target: T1, His-MetFV; assay: spectrophotometric methyl-THF:benzyl viologen oxidoreductase assay, […] nm; assay type: biochemical; conditions: 1 mM methyl-THF, 10 mM benzyl viologen; 50 mM KPi, 20 mM ascorbate, pH 7, 66 °C
[3] = molecular target: T1, His-MetFV; assay: spectrophotometric reduced methyl viologen:methylene-THF oxidoreductase assay, […] nm; assay type: biochemical; conditions: methylene-THF formed from 0.5 mM THF and 1.5 mM formaldehyde; 10 mM methyl viologen, dithionite; 50 mM KPi, 20 mM ascorbate, pH 7, 66 °C
[4] = molecular target: His-HydABC, electron-bifurcating hydrogenase complex of T. kivui (Thermoanaerobacter kivui); assay: SEC; analytical size exclusion chromatography on a calibrated Superdex 200 column with size standards; buffer B (50 mM Tris/HCl, 150 mM NaCl, 20 mM MgSO4, 2 mM DTE, 20% glycerol, pH 7.5)
[5] = molecular target: His-HydABC, electron-bifurcating hydrogenase complex of T. kivui (Thermoanaerobacter kivui)
[6] = substrate: NC(=O)c1ccc[n+]([C@@H]2O[C@H](COP(=O)(O)OP(=O)(O)OC[C@H]3O[C@@H](n4cnc5c(N)ncnc54)[C@H](OP(=O)(O)O)[C@@H]3O)[C@@H](O)[C@H]2O)c1; assay: purified protein; conditions: H2 and C. pasteurianum ferredoxin as co-substrates, 5 µM FMN, 50 mM EPPS, 10 mM NaCl, pH 8, 66 °C
[7] = substrate: Cc1cc2nc3c(=O)[nH]c(=O)nc-3n(C[C@H](O)[C@H](O)[C@H](O)COP(=O)(O)O)c2cc1C; assay: spectrophotometric H2:Fd/NADP+ oxidoreductase assay; assay type: biochemical, Thermoanaerobacter kivui; conditions: H2, ferredoxin and NADP+ as co-substrates, pH 8, 66 °C, FMN stimulation of activity, error exceeds the value, varied: cofactor
[8] = molecular target: the molecule itself; assay: SEC; analytical size exclusion chromatography on a calibrated Superdex 200 column with size standards; buffer B (50 mM Tris/HCl, 150 mM NaCl, 20 mM MgSO4, 2 mM DTE, 20% glycerol, pH 7.5)

Molecule: Cc1cc2nc3c(=O)[nH]c(=O)nc-3n(C[C@H](O)[C@H](O)[C@H](O)COP(=O)(O)O)c2cc1C [FMN]
thin-layer chromatography of flavin released from purified complex [1]: subsequent separation of the flavin-containing supernatant by thin-layer chromatography (TLC), FMN could be detected

Molecule: CN1c2c(nc(N)[nH]c2=O)NC[C@@H]1CNc1ccc(C(=O)N[C@@H](CCC(=O)O)C(=O)O)cc1 [methyl-THF]
spectrophotometric methyl-THF:benzyl viologen oxidoreductase assay, 600 nm [2]: oxidation of methyl-THF was not coupled to NAD^+, NADP^+ or Fd reduction

Molecule: Nc1nc2c(c(=O)[nH]1)N1CN(c3ccc(C(=O)N[C@@H](CCC(=O)O)C(=O)O)cc3)C[C@H]1CN2 [methylene-THF]
spectrophotometric reduced methyl viologen:methylene-THF oxidoreductase assay, 6 [3]: The purified MetFV complex catalyzed the reduction of methylene-THF with reduced MV

stoichiometry N [4]: 2
Molecule: His-HydABC, electron-bifurcating hydrogenase complex of T. kivui (from UniProt A0A097ATG4 1-630; A0A097ATI0 1-170)

Km for Fd in the NADP+-dependent H2:Fd oxidoreductase assay (Fd 0–200 µM, 66 °C) [5]: 13.6 µM
B1: ferredoxin isolated from Clostridium pasteurianum (natural protein)
chain: MAYKIADSCVSCGACASECPVNAISQGDSIFVIDADTCIDCGNCANVCPVGAPVQE

B2: His-HydABC (Thermoanaerobacter kivui) (protein)
chain: MVKLKSIQELENLREKIKEAKKKEKIVIRICGGTGCRASGSLAVRDELVKVLKREGFANVDVNLSSDCLENTSEVHVKMTGCQGFCAQGPLMTIEPLGVFYVGVKPEDVEEIVEKSIKKNEIIERLLYHDPATGKTYVKRDENPFYAKQTRLVLKHCGTVDPASVYDYIAEGGYSAIAKALTMDRKQIIDEVIKSGLRGRGGAGFPTGEKWLGAYKNQSPKKYIICNGDEGDPGAFMDRSVMEGDPHKVIEGMMIGAYAIGSDEGYIYVRAEYPLAVQMLRKAIEECEKLGLLGDNILGTGFSFRLHVREGAGAFVCGESTALTYSIEGKRGMPRVRPPRTNECGLWEMPTVLNNVETFACIPEIILNGGEWFASIGTPTSTGTKIFALSGKVNRTGLVEVPMGLKLRELIFDIGGGIANNKKFKAVQLGGPSGGCVPESQLDLPIDFDSLSKAGAIMGSGGVVVVDEDTCMVDFAKFFTNFIVEESCGKCIPCREGNKKMLEILERITEGKGKEGDIELLEELGDVIISASLCGLGKTAPNPVLSTIKHFRDEYEAHIRDKKCPAGACQALAAYKIDPGKCIGCGKCVKVCPVGAISGEKKKPHVIDQSKCIKCGACAENCPKGAIYKG
notes: HydABC complex, 10xHis tag at 3' end of hydA, plasmid pMU131, produced homologously in T. kivui; Ni-NTA and Superdex 200; 348 kDa, dimer of HydABC (HydA 64, HydB 68, HydC 18 kDa); with Electron-bifurcating [FeFe] hydrogenase subunit HydA; Electron-bifurcating hydrogenase subunit HydC
Km [6]: 48.8 ± 10.6 µM
Km [7]: 0.3 ± 0.8 µM

B3: His-MetFV, methylene-THF reductase complex of T. kivui (complex, Thermoanaerobacter kivui)
chain 1: T1 sequence (A0A097ATJ3 1-291)
chain 2: T1 sequence (A0A097ATJ4 1-216 partner)
notes: One MetFV heterodimer; By analytical SEC the purified complex (174 kDa) is consistent with three MetFV heterodimers; It contains iron-sulfur clusters and FMN; also called MTHFR; MetFV heterodimer; source: T. kivui (DSM 2030), plasmid pMU131_His-metFV, produced homologously, purified (Ni2+-NTA, Superdex 200)
stoichiometry N [8]: 3
